The record followed here is PMC7505474, “Toll-like receptor 4-mediated inflammation triggered by extracellular IFI16 is enhanced by lipopolysaccharide binding” (PLoS Pathogens, 2020).

Assay [1] deals with T1, Recombinant TLR4/MD2 complex (R&D Systems 3146-TM-050/CF) (UniProt O00206 24-631; Q9Y6Y9 19-160).
T1 construct: Toll-like receptor 4 chain of the bought recombinant TLR4/MD2 complex; neither species nor construct limits are stated; MD2 (lymphocyte antigen 96) chain of the bought recombinant TLR4/MD2 complex; also called TLR4/MD2 receptor; source: bought: R&D Systems
T1 sequence (O00206 24-631, chain 1 of 2): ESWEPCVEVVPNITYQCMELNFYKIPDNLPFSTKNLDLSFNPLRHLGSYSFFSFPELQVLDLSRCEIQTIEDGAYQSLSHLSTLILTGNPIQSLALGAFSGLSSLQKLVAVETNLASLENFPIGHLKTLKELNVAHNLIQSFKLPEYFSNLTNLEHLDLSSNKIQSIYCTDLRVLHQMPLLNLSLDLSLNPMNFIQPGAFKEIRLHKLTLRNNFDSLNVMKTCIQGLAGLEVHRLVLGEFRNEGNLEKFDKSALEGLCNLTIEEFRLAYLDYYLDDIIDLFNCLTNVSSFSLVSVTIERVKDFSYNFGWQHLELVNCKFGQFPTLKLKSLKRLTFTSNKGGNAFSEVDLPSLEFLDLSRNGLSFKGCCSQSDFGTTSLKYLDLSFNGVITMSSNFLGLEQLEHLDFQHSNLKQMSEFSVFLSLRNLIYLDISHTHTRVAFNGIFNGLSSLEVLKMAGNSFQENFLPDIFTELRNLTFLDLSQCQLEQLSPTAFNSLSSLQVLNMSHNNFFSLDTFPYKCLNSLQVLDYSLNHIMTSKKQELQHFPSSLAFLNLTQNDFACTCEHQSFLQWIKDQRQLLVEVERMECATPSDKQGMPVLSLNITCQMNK
T1 sequence (Q9Y6Y9 19-160, chain 2 of 2): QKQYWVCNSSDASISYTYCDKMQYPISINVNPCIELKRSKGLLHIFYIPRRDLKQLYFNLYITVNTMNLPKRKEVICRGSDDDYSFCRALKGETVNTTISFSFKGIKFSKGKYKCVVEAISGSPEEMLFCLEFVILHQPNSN
The experiment in a line: SPR; Biacore X100; TLR4/MD2 complex immobilised on a CM5 chip by amine coupling (1,223.9 RU); IFI16 alone 31.25-1,000 nM flowed at 30 μl/min, 25°C, HBS-EP+ buffer; association 120 s, dissociation 180 s; 1:1 binding model. To be noted: both partners purified. In general terms: SPR reads the build-up and loss of mass on a sensor chip optically.

Assay [2] has as its target T1, Recombinant TLR4/MD2 complex (R&D …). Briefly: SPR; Biacore X100; TLR4/MD2 complex immobilised on a CM5 chip by amine coupling (1,223.9 RU); analyte is IFI16 pre-complexed with LPS-EB (IFI16/LPS-EB complex), 31.25-1,000 nM, 30 μl/min, 25°C, HBS-EP+ buffer; association 120 s, dissociation 180 s; 1:1 binding model. The note with it: both partners purified.

B1: human recombinant IFI16 protein (natural protein, UniProt Q16666-2 1-729, looked up)
chain: MGKKYKNIVLLKGLEVINDYHFRMVKSLLSNDLKLNLKMREEYDKIQIADLMEEKFRGDAGLGKLIKIFEDIPTLEDLAETLKKEKLKVKGPALSRKRKKEVDATSPAPSTSSTVKTEGAEATPGAQKRKKSTKEKAGPKGSKVSEEQTQPPSPAGAGMSTAMGRSPSPKTSLSAPPNSSSTENPKTVAKCQVTPRRNVLQKRPVIVKVLSTTKPFEYETPEMEKKIMFHATVATQTQFFHVKVLNTSLKEKFNGKKIIIISDYLEYDSLLEVNEESTVSEAGPNQTFEVPNKIINRAKETLKIDILHKQASGNIVYGVFMLHKKTVNQKTTIYEIQDDRGKMDVVGTGQCHNIPCEEGDKLQLFCFRLRKKNQMSKLISEMHSFIQIKKKTNPRNNDPKSMKLPQEQRQLPYPSEASTTFPESHLRTPQMPPTTPSSSFFTKKSEDTISKMNDFMRMQILKEGSHFPGPFMTSIGPAESHPHTPQMPPSTPSSSFLTTLKPRLKTEPEEVSIEDSAQSDLKEVMVLNATESFVYEPKEQKKMFHATVATENEVFRVKVFNIDLKEKFTPKKIIAIANYVCRNGFLEVYPFTLVADVNADRNMEIPKGLIRSASVTPKINQLCSQTKGSFVNGVFEVHKKNVRGEFTYYEIQDNTGKMEVVVHGRLTTINCEEGDKLKLTCFELAPKSGNTGELRSVIHSHIKVIKTRKNKKDILNPDSSMETSPDFFF
notes: IFI16, human, full-length recombinant protein; The domains were cloned in pET30a and made 'following the same procedure as that for the full-length protein'; In assay a3 and in part of a4 the protein was pre-incubated O/N at 4°C with LPS-EB, which is not a protein; also called full-length IFI16; endotoxin-free IFI16; source: recombinant, produced as previously described [24], purified, endotoxins …
For orientation: Kd means a measure of binding affinity in units of concentration. As usually defined, the koff is a measure of how fast the partners let go of each other. In general, kon refers to the second-order rate constant of association. As for B1, in assay [1], the Kd is 677 nM, the koff is 0.00614 s⁻¹ and the kon came to 9070 M⁻¹ s⁻¹. Besides, in assay [2], the Kd was 4010 nM, the koff came out at 0.0143 s⁻¹ and the association rate constant (kon) was determined as 3570 M⁻¹ s⁻¹.
